Reference: the supplement of paper PMC10126150
± gives the standard deviation of the averaged measurements.
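Further: ATP exposure 15 min at 22 °C before imaging.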

These sequences were tested on ATP (assay: switch fluorescence ratio, 500 uM ATP over buffer (Cy3 cluster intensity, sum of 5 cycles each) (fold (ratio)); higher = stronger signal-on switching upon ATP binding; sequences stand for … in TCGTCGGCAGCGTCAGATGTGTATAAGAGACAGTTTTTTTTTTTTTTTTTTTTTTTTT…TC). Settings: aptamer strand: ATP DNA aptamer (quencher-CACCTGGGGGAGTATTGCGGAGGAAGG + anchor), 100 nM annealed; ATP concentration: 500 uM.
How it was run: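 Cy3-labelled switching-strand clusters on a modified Illumina MiSeq flow-cell were annealed to 100 nM quencher-labelled ATP aptamer, imaged in selection buffer, then imaged after 15 min with 500 uM ATP at 22 °C. Five buffer/ATP cycles ran, with NaOH stripping and re-annealing between them. The fluorescence ratio is summed target-cycle over summed buffer-cycle Cy3 intensity per cluster, averaged per switch-domain sequence. Clusters outside 100-1000 RFU were excluded.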
With GGGATAAGTT the switch fluorescence ratio was 0.983 ± 0.035.
With CACGGGGGA the switch fluorescence ratio was 0.974 ± 0.025.
With TACTTGGAAC the switch fluorescence ratio was 1.04 ± 0.012.
TTCGGTTACG gave a switch fluorescence ratio of 1.01 ± 0.011.
AGACTGAGTT gave a switch fluorescence ratio of 0.984 ± 0.016.
TTTTAGGTAT gave a switch fluorescence ratio of 1.02 ± 0.038.
In the case of TTGAAAAAGG, the switch fluorescence ratio is reported as 0.968 ± 0.018.
Work on ACAAATTGTT yielded a switch fluorescence ratio of 1.09 ± 0.069.
ACTGTTTTTA was tested, and the switch fluorescence ratio was 0.9849 ± 0.004.
TAATGGATGT was tested, and the switch fluorescence ratio was 0.976 ± 0.027.
In the case of CATGTCTGTA, the switch fluorescence ratio is reported as 1.
In the case of TACGGGTTAG, the switch fluorescence ratio is reported as 1.031 ± 0.0034.
Sequence GAACAACATG has a switch fluorescence ratio of 1.03 ± 0.051.
With TGATTAGGGG the switch fluorescence ratio was 0.9948 ± 0.0096.
For CGCAGGGGGC, the switch fluorescence ratio was 1.14 ± 0.059.
TTAGTAGTGT showed a switch fluorescence ratio of 0.973 ± 0.0063.
Sequence AGGATTAGCT has a switch fluorescence ratio of 0.999 ± 0.042.
In the case of GATACCGGTG, the switch fluorescence ratio is reported as 1.17 ± 0.25.
TTAAGAGGTC showed a switch fluorescence ratio of 0.979 ± 0.018.
GTGTAGGGTA gave a switch fluorescence ratio of 1.01 ± 0.02.
TTTAGGGGCT showed a switch fluorescence ratio of 0.9764 ± 0.0076.
For TTAATCCCAG, the switch fluorescence ratio was 1.02 ± 0.021.
Work on TATTTTATAT yielded a switch fluorescence ratio of 0.943 ± 0.021.
Work on TTGGGGTTAT yielded a switch fluorescence ratio of 0.975 ± 0.032.
For TTCCGGGCTG, the switch fluorescence ratio was 1 ± 0.02.
Work on GAAGTTTTTT yielded a switch fluorescence ratio of 1.002 ± 0.0036.
TAAATTGATT showed a switch fluorescence ratio of 1.02 ± 0.014.
ACCTCGTTTT showed a switch fluorescence ratio of 0.9879 ± 0.0062.
GCTAGTGTGG showed a switch fluorescence ratio of 1.03 ± 0.015.
Work on TTGATGATCC yielded a switch fluorescence ratio of 0.9781 ± 0.0034.
Work on GAGGGGCCTG yielded a switch fluorescence ratio of 1.01 ± 0.083.
Sequence ACCCGTACAT has a switch fluorescence ratio of 1.11 ± 0.022.
In the case of TTTATGTAGG, the switch fluorescence ratio is reported as 0.9887 ± 0.0044.
Sequence CGTTACTATA has a switch fluorescence ratio of 1.08 ± 0.011.
With GATTTATAAT the switch fluorescence ratio was 1.014 ± 0.0029.
In the case of ATTTTGCGAT, the switch fluorescence ratio is reported as 1.01 ± 0.015.
GATCACGTTG gave a switch fluorescence ratio of 0.999 ± 0.022.
CCTAACTTAG gave a switch fluorescence ratio of 1.021 ± 0.0029.
Work on ACCCCATGCG yielded a switch fluorescence ratio of 1.22 ± 0.037.
GATTTTTTTC gave a switch fluorescence ratio of 0.98 ± 0.05.
For CGGAGGGAGT, the switch fluorescence ratio was 1.78 ± 1.1.
Sequence AAGCAGGGGC has a switch fluorescence ratio of 1.14 ± 0.16.
For AGGAGTCGTT, the switch fluorescence ratio was 1.02 ± 0.044.
AGGATACTTT was tested, and the switch fluorescence ratio was 0.9793 ± 0.0038.
Sequence CTCGACAGGG has a switch fluorescence ratio of 0.991 ± 0.019.
ACTGTACACC showed a switch fluorescence ratio of 1.46 ± 0.026.
GCTGCTAAGG gave a switch fluorescence ratio of 0.987 ± 0.056.
TTGAGGAAGG showed a switch fluorescence ratio of 0.9835 ± 0.0018.
Sequence TTTATTAGCT has a switch fluorescence ratio of 1.02 ± 0.043.
Work on CGTAAATTGG yielded a switch fluorescence ratio of 1.02 ± 0.013.
For GGAAGGGAAC, the switch fluorescence ratio was 0.988 ± 0.033.
Work on GCGGGAGGGA yielded a switch fluorescence ratio of 1.03 ± 0.015.
With ATTTTTTTAT the switch fluorescence ratio was 0.995 ± 0.017.
Work on GTATAGGGTT yielded a switch fluorescence ratio of 0.9931 ± 0.007.
For CGGGCAGTTT, the switch fluorescence ratio was 1.03 ± 0.041.
Sequence GATTATAGGT has a switch fluorescence ratio of 1.01 ± 0.015.
GTTGACTGGT showed a switch fluorescence ratio of 0.95 ± 0.016.
GGTCTGGGGG showed a switch fluorescence ratio of 0.955 ± 0.012.
TAGATTTCTG gave a switch fluorescence ratio of 0.989 ± 0.025.
TTCTCCGGGT was tested, and the switch fluorescence ratio was 1.24 ± 0.32.
Sequence TCCCGGGACA has a switch fluorescence ratio of 1.79 ± 1.1.
With TTTGAAAGGA the switch fluorescence ratio was 1.01 ± 0.032.
In the case of GATTGCCGGT, the switch fluorescence ratio is reported as 1.01 ± 0.015.
With GGGTTTTTAC the switch fluorescence ratio was 1.03 ± 0.033.
In the case of TAATGTGCAA, the switch fluorescence ratio is reported as 1.09 ± 0.013.
GGTCATGGCG showed a switch fluorescence ratio of 1.02 ± 0.098.
With GGTGCCGTGC the switch fluorescence ratio was 0.995 ± 0.034.
Sequence TGGTTGTTAG has a switch fluorescence ratio of 1.012 ± 0.0073.
Sequence AATGAATTCG has a switch fluorescence ratio of 1 ± 0.031.
In the case of TTTTCCAAAG, the switch fluorescence ratio is reported as 1.01 ± 0.055.
Work on AAGTTGAAGG yielded a switch fluorescence ratio of 1 ± 0.013.
Work on CGGTTTCTTT yielded a switch fluorescence ratio of 0.967 ± 0.053.
Work on TTATTTGGGG yielded a switch fluorescence ratio of 1.01 ± 0.056.
GATGTTATTC was tested, and the switch fluorescence ratio was 0.978 ± 0.011.
Sequence TATTCGTATT has a switch fluorescence ratio of 0.981 ± 0.029.
Work on TATTACGGGG yielded a switch fluorescence ratio of 1.005 ± 0.006.
With TCGTTCGAGG the switch fluorescence ratio was 0.958 ± 0.013.
In the case of ATCGGATGTA, the switch fluorescence ratio is reported as 1.016 ± 0.0084.
AAATTTTGAG showed a switch fluorescence ratio of 1.02 ± 0.032.
In the case of CATCTCCGGT, the switch fluorescence ratio is reported as 1.13 ± 0.0087.
For CCAGTCATGA, the switch fluorescence ratio was 1.014 ± 0.0027.
For GGACGGTCTT, the switch fluorescence ratio was 1.01 ± 0.043.
Work on AGGACAAATC yielded a switch fluorescence ratio of 0.985 ± 0.026.
AACAACTCTC gave a switch fluorescence ratio of 1.06 ± 0.017.
Sequence TTTAAGTAAG has a switch fluorescence ratio of 1.02 ± 0.012.
TGTTAGGTGA showed a switch fluorescence ratio of 1.07 ± 0.011.
GTGATTTGGT gave a switch fluorescence ratio of 0.995 ± 0.019.
In the case of ATGTTATAGA, the switch fluorescence ratio is reported as 0.986 ± 0.034.
With GAATATGAGA the switch fluorescence ratio was 0.9629 ± 0.0051.
Sequence GTGGGATTAG has a switch fluorescence ratio of 1 ± 0.028.
With TGCTATGGGG the switch fluorescence ratio was 1 ± 0.016.
AACATATATT showed a switch fluorescence ratio of 1.02 ± 0.028.
Work on TGTAGGGTGC yielded a switch fluorescence ratio of 1.07 ± 0.044.
AGAATAATAG showed a switch fluorescence ratio of 1.02 ± 0.026.
For AGGGGCGACT, the switch fluorescence ratio was 0.984 ± 0.03.
Work on ATTTCGGTGG yielded a switch fluorescence ratio of 1.06 ± 0.044.
CATGGCCACC was tested, and the switch fluorescence ratio was 1.015 ± 0.0078.
AGGCGCAAGC was tested, and the switch fluorescence ratio was 1.07 ± 0.048.
Work on ATCAGCGACT yielded a switch fluorescence ratio of 0.993 ± 0.043.
In the case of TGAGGGTAAG, the switch fluorescence ratio is reported as 1.13 ± 0.21.
